Measurements taken from patent US20090018093.
Where two headings read alike, the source gives them in different places.

Key:
[1] = tested on: Immunoglobulin E (IgE) (Homo sapiens), P01854-1; test: inhibition
[2] = tested on: Immunoglobulin E (IgE) (Homo sapiens), P01854-1; test: filter

Chain of Immunoglobulin E (IgE) (Homo sapiens), P01854-1 (P01854 other isoform, or with tags, fused parts or gaps): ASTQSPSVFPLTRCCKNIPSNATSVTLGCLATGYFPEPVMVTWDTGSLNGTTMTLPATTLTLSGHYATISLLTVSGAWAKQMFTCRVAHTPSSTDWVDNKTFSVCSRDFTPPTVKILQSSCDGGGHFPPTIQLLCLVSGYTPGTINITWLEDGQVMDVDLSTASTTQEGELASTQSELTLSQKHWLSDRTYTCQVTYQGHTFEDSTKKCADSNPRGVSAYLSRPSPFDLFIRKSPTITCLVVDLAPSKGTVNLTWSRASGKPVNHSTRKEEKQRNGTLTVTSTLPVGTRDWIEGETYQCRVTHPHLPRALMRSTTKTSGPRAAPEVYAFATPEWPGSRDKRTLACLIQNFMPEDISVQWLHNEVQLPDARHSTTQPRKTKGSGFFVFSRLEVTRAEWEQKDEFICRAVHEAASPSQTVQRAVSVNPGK

In the case of “GGGAAAAGCGAAUCAUACACAAGAGUGCCGAGGCAUUGCUUGGUAUGGUUCCGGUCUUGUCGGGGCUCCGCCAGAGACCAACCGAGAA [rRfY clone SEQ 19]”, the IC50 ([1]; 2'-F C,U, ELISA FceR1-Fc, FACS 9.9 nM (Table 25)) is reported as 7.4 nM and the Kd ([2]; 2'-F C and U, biphasic, KD2 17.4 nM, 1xSHMCK + tRNA, RT) is reported as 0.095 nM.
Sequence AGCCUGGGGACCCAUGGGGGGCU [ARC1642] has an IC50 ([1]; 2'-OMe/2'-deoxy mix, dI16,dI20, PS, 3' idT [16=dI, 20=dI (G parent), 24=3' inverted dT, phosphorothioate linkage N's left out], FACS, 2.5 nM IgE) of 1.8 nM and a Kd ([2]; 2'-OMe/2'-deoxy mix, dI16,dI20, PS, 3' idT [16=dI, 20=dI (G parent), 24=3' inverted dT, phosphorothioate linkage N's left out], DPBS Mg/Ca, 0.1 mg/mL BSA, RT) of 0.4 nM.
For AGCCUGGGGACCCAUGGGGGGCU [ARC1643], the IC50 ([1]; 2'-OMe/2'-deoxy mix, dI20, PS, 3' idT [20=dI (G parent), 24=3' inverted dT, phosphorothioate linkage N's left out (5^6, 7^8, 8^9, 15^16, 17^18, 18^19, 19^20, 20^21)], FACS, 2.5 nM IgE) was 8 nM and the Kd ([2]; 2'-OMe/2'-deoxy mix, dI20, PS, 3' idT [20=dI (G parent), 24=3' inverted dT, phosphorothioate linkage N's left out (5^6, 7^8, 8^9, 15^16, 17^18, 18^19, 19^20, 20^21)], DPBS Mg/Ca, 0.1 mg/mL BSA, RT) was 1.1 nM.
In the case of AGCCUGGGGACCCAUGGGGGGCU [ARC1337], the IC50 ([1]; 2'-OMe/2'-deoxy mix, PS, 3' idT [PS after 1,9,15,16,18,20, 2'-OMe/2'-deoxy mix, 3' idT left out], FACS, 2.5 nM IgE) is reported as 4.7 nM and the Kd ([2]; as printed dA-s-mGmCmCmUdGmGdGdG-s-mAmCmCmCmAmU-s-dG-s-mGdGdGdG-s-dGmCmU-3T [deoxy: 1,6,8,9,16,18-21, 2'-OMe: 2-5,7,10-15,17,22,23, phosphorothioate after 1,9,15,16,20 (also after 18 per given string), 24 = 3' inverted dT], dPBS Ca/Mg + BSA, RT) is reported as 0.2 nM.
With “GGAAUCAUACACAAGACGUCGCCAGAUUGAGUGUCGUGGUUCC [rRfY minimer SEQ 91]” the IC50 ([1]; 2'-F C,U, FACS, 15 nM IgE) was 3.8 nM and the Kd ([2]; 2'-F C and U, KD2 36.9 nM, 1xSHMCK + tRNA) was 0.56 nM.
AGCCUGGGGACCCAUGGGGGGCU [ARC1790] gave an IC50 ([1]; ARC1666 chemistry, 5' and 3' 30 kDa PEG [dI at 16,18,20 (written as parent G), PS after 8,15,16,18,20, 2'-OMe/2'-deoxy mix (ARC1666 chemistry), 5' and 3' amine linker-30 kDa PEG left out], FACS, IgE-FceR1 on SX38 cells) of 0.89 nM.
“NNAGCCUGGGNGACCCAUNNNGNNGNNGCUN [ARC1787]” was tested, and the IC50 ([1]; ARC1666 chemistry, 5' 40 kDa branched PEG, 3' idT, FACS, IgE-FceR1 on SX38 cells) was 1.2 nM.
AGCCUGGGGACCCAUGGGGGGCU [ARC1785] was tested, and the IC50 ([1]; ARC1666 chemistry, 5' and 3' 20 kDa PEG [dI at 16,18,20 (written as parent G), PS after 8,15,16,18,20, 2'-OMe/2'-deoxy mix (ARC1666 chemistry), 5' and 3' amine linker-20 kDa PEG left out], FACS, IgE-FceR1 on SX38 cells) was 2 nM.
Work on AGCCUGGGGACCCAUGGGGGGCU [ARC1258] yielded a Kd ([2]; 2'-OMe C,U and G16, other A,G deoxy, 3' idT [2'-OMe: 3,4,5,11,12,13,15,16,22,23, 2'-deoxy: 1,2,6,7,8,9,10,14,17,18,19,20,21, 24 = 3' inverted dT], dPBS Ca/Mg + BSA, RT) of 15 nM.
“AGCCNUGGGNGACCCAUNNNGNNGNNGCUN [ARC2972]” was tested, and the Kd ([2]; ARC1666 chemistry + PS 4-5, 3' idT, DPBS Mg/Ca, BSA, RT) was 0.05 nM.
With AGGCUGGGGACCCAUGGGGGCCU [ARC1244] the Kd ([2]; dRmY, dPBS Ca/Mg + BSA, RT) was 450 nM.
With “GGGGCTACTTTATCCGTTCCTCCTAGTGGGTAGCCCC [ARC1413]” the Kd ([2]; 2'-OMe at 1-4,7,33-37, PS 30-31, 3' idT [2'-OMe at 1-4,7,33-37, PS 30-31, 3' idT cap after 37 (left out)], DPBS Mg/Ca, BSA) was 3.3 nM.
Sequence “GGGGCTACTTGATCCGTCCCTCCTAGTGGGTAGCCCC [ARC477]” has a Kd [2] of 0.6 nM.
Work on “GGGGCTACTTTATCCGTTCCTCCTAGTGGGTAGCCCC [ARC1405]” yielded a Kd ([2]; 2'-OMe at 1-4,7,33-37, PS 22-23, 3' idT [2'-OMe at 1-4,7,33-37, PS 22-23, 3' idT cap after 37 (left out)], DPBS Mg/Ca, BSA) of 2.5 nM.
In the case of AGCCUGGGGACCCAUGGGGGGCU [ARC903], the Kd ([2]; dRmY (2'-OMe C,U), 7-deaza-dG6 [7-deaza-dG at 6, 2'-OMe C3,C4,U5,C11,C12,C13,U15,C22,U23, A,G 2'-deoxy], DPBS Mg/Ca, 0.1 mg/mL BSA, RT) is reported as 14 nM.
“GGGGCUACTTTATCCGTTCCTCCTAGTGGGTAGCCCC [ARC1270]” gave a Kd ([2]; 2'-OMe U at 6, 3' idT [6 (2'-OMe U), 38 (3' inverted dT)], DPBS Mg/Ca, BSA) of 0.2 nM.
“GGGGCTACTTTATCCGTTCCTCCTAGTGGGTAGCCCC [ARC1404]” showed a Kd ([2]; 2'-OMe at 1-4,7,33-37, PS 21-22, 3' idT [2'-OMe at 1-4,7,33-37, PS linkage 21-22 (internal N = PS, not a base), 3' inverted dT cap (terminal N, left out)], DPBS Mg/Ca, BSA) of 1.8 nM.
Work on “AGCCUGGGNGACCCAUNNNGNNGNNGNCNUNN [ARC3274]” yielded a Kd ([2]; ARC2342 chemistry with 2'-OMe G9,I16, 3' idT, DPBS Mg/Ca, BSA, RT) of 0.12 nM.
For AGCCUGGGGACCCAUGGGGGGCU [ARC904], the Kd ([2]; dRmY (2'-OMe C,U), 7-deaza-dG7 [7-deaza-dG at 7, 2'-OMe C3,C4,U5,C11,C12,C13,U15,C22,U23, A,G 2'-deoxy], DPBS Mg/Ca, 0.1 mg/mL BSA, RT) was 8 nM.
“GGGGCAGCTTTATCCGTACCTCCCAGTGGGCTGCCCC [ARC474]” gave a Kd [2] of 0.7 nM.
Sequence “GGGGCTACTTTATCCGTTCCTCCTAGTGGGTAGCCCCT [ARC1278]” has a Kd ([2]; 2'-OMe at 14, 3' idT [14 (2'-OMe C), 38 (3' inverted dT)], DPBS Mg/Ca, BSA) of 2 nM.
For AGCCUGGGGACCCAUGGGGGGCU [ARC1259], the Kd ([2]; 2'-OMe G17 and all C,U, rest 2'-deoxy, 3' idT [2'-OMe at 3,4,5,11,12,13,15,17,22,23, 3'-idT at 24], DPBS Mg/Ca, 0.1 mg/mL BSA, RT) was 5 nM.
For “AGCCUGGNGNGACCCAUNNNGNNGNNGCUN [ARC2975]”, the Kd ([2]; ARC1666 chemistry + PS 7-8, 3' idT, DPBS Mg/Ca, BSA, RT) was 0.04 nM.
Work on “GGGAAAAGCGAAUCAUACACAAGAGUGCAAGAAGUGCAUUGCUGUGUCUGGUUCUUGGCGAUGUGCUCCGCCAGAGACCAACCGAGAA [rRfY clone SEQ 17]” yielded a binding signal ([2]; 2'-F C,U, ratio bound +/- 20 nM IgE) of 0.76.
In the case of “GGGGCTACTTTATCCGTTCCTCCTAGTGGGTAGCCCC [ARC656]”, the IC50 ([1]; 3' idT [3' idT left out], FACS, 2.5 nM IgE, histamine release IC50 16.9 nM) is reported as 21.2 nM.
With “GGGAGAGGAGAGAACGUUCUACGCAGCGCAUCUGGGGACCCAAGAGGGGAUUCGCUGUCGAUCGAUCGAUCGAUG [ARC2001]” the Kd ([2]; dRmY: 2'-deoxy A,G, 2'-OMe C,U, error 0.1, dPBS Ca/Mg + BSA, RT) was 18 nM.
Sequence “NNAGCCUGGGNGACCCAUNNNGNNGNNGCUN [ARC1788]” has an IC50 ([1]; ARC1666 chemistry, 5' 60 kDa branched PEG, 3' idT, FACS, IgE-FceR1 on SX38 cells) of 1.2 nM.
For “GGGGCTACTTTATCCGTTCCTCCTAGTGGGTAGCCCCT [ARC1279]”, the Kd ([2]; 2'-OMe at 15, 3' idT [15 (2'-OMe C), 38 (3' inverted dT)], DPBS Mg/Ca, BSA) was 0.8 nM.
“GGGGCTACTTTATCCGTTCCTCCTAGTGGGTAGCCCC [ARC1402]” was tested, and the Kd ([2]; 2'-OMe at 1-4,7,33-37, PS 19-20, 3' idT [2'-OMe at 1-4,7,33-37, PS linkage 19-20 (internal N = PS, not a base), 3' inverted dT cap (terminal N, left out)], DPBS Mg/Ca, BSA) was 2.1 nM.
“GGGGCTACTTTATCCGTTCCUCCTAGTGGGTAGCCCCN [ARC1285]” gave a Kd ([2]; 2'-OMe U at 21, 3' idT, DPBS Mg/Ca, BSA) of 0.8 nM.
With “GGGGCTACTTTATCCGTTCCTCCTAGTGGGTAGCCCC [ARC1399]” the Kd ([2]; 2'-OMe at 1-4,7,33-37, PS 16-17, 3' idT [2'-OMe at 1-4,7,33-37, PS linkage 16-17 (internal N = PS, not a base), 3' inverted dT cap (terminal N, left out)], DPBS Mg/Ca, BSA) was 1.8 nM.
In the case of AGCCUGGGGACCCAUGGGGGGCU [ARC2981], the Kd ([2]; ARC1666 pattern plus PS between A14 and U15, 3' idT [dI (written G) at 16,18,20, 2'-OMe 1-5,7,10-15,17,22,23, deoxy 6,8,9,16,18-21, PS 8/9,14/15,15/16,16/17,18/19,20/21, 3' inverted dT left out], dPBS Ca/Mg + BSA, RT) is reported as 0.02 nM.
“AGCCUGGGNGACCCAUNNNGNNGNNGCUNN [ARC2369]” was tested, and the Kd ([2]; ARC1666 pattern, 3'-NH-PEG20K, no idT, dPBS Ca/Mg + BSA, RT) was 0.03 nM.
AGCCUGGGGACCCAUGGGGGGCU [ARC1548] was tested, and the Kd ([2]; ARC1335 chemistry with dI2, 3' idT [2=dI (G parent), 24=3' inverted dT], DPBS Mg/Ca, 0.1 mg/mL BSA, RT) was 3.3 nM.
In the case of “GGGGCTACTTTATCCGTTCCTCCTAGTGGGTAGCCCCT [ARC1266]”, the Kd ([2]; 2'-OMe at 2, 3' idT [2 (2'-OMe G), 38 (3' inverted dT)], DPBS Mg/Ca, BSA) is reported as 0.2 nM.
AGCCUGGGGACCCAUGGGGGGCU [ARC1563] gave a Kd ([2]; ARC1335 chemistry with dI17, 3' idT [17=dI (G parent), 24=3' inverted dT], DPBS Mg/Ca, 0.1 mg/mL BSA, RT) of 2.2 nM.
With “GGGGCTACTTTATCCGTTCCTCCTAGTGGGTAGCCCCT [ARC1271]” the Kd ([2]; 2'-OMe at 7, 3' idT [7 (2'-OMe A), 38 (3' inverted dT)], DPBS Mg/Ca, BSA) was 0.2 nM.
“GGGGCTACTTTATCCGTTCCTCCTAGTGGGTAGCCCC [ARC1408]” was tested, and the Kd ([2]; 2'-OMe at 1-4,7,33-37, PS 25-26, 3' idT [2'-OMe at 1-4,7,33-37, PS 25-26, 3' idT cap after 37 (left out)], DPBS Mg/Ca, BSA) was 1 nM.
“GGGGCAGCTTTATCCGTTCCTCCTAGTGGGCTGCCTC [DNA clone SEQ 131]” was tested, and the Kd [2] was 0.3 nM.
Work on “GGGGCUACTTTATCCGTTCCTCCTAGTGGGUAGCCCC [ARC1303]” yielded a Kd ([2]; 2'-OMe stem block as printed in Table 18, 3' idT [2'-OMe: stem block (exact positions not given in the material), 38 = 3' inverted dT], DPBS Mg/Ca, BSA) of 1.3 nM.
“GGGGCTACTTTATCCGTTCCTCCTAGTGGGTAGCCCC [ARC1412]” showed a Kd ([2]; 2'-OMe at 1-4,7,33-37, PS 29-30, 3' idT [2'-OMe at 1-4,7,33-37, PS 29-30, 3' idT cap after 37 (left out)], DPBS Mg/Ca, BSA) of 2.5 nM.
Work on AGCCUGGGGACCCAUGGGGGGCU [ARC3263] yielded a Kd ([2]; ARC1666 pattern with 2'-OMe G9, 3' idT [dI (written G) at 16,18,20, 2'-OMe 1-5,7,9,10-15,17,22,23, deoxy 6,8,16,18-21, PS 8/9,15/16,16/17,18/19,20/21, 3' inverted dT left out], dPBS Ca/Mg + BSA, RT) of 0.026 nM.
Work on “GGGGCACATTTATCCGTCCCTCCTAGTGGTGTGCCCC [DNA clone SEQ 119]” yielded a Kd [2] of 0.6 nM.
